Laboratory results published in US20190300590A1 (PROTAGONIST THERAPEUTICS, published 2019).
Bridges are numbered along the chain shown (N, C = ends). [ ]: non-standard residue; d: D form. NMeW = CN[C@@H](Cc1c[nH]c2ccccc12)C(=O)O; 1Nal = N[C@@H](Cc1cccc2ccccc12)C(=O)O; NMeH = CN[C@@H](Cc1c[nH]cn1)C(=O)O; AEA = NCCOCC(=O)O; βAla = NCCC(=O)O; Sar = CNCC(=O)O

B1: Ac-CQTWQCYWR-[Sarc]-NG-[AEA]-[(D)-Lys]-NH2 (peptide)
peptide: Ac-CQTWQCYWR[Sar]NG[AEA][dK]-NH2
modifications: disulfide 1-6
SMILES: CC(=O)N[C@H]1CSSC[C@@H](C(=O)N[C@@H](Cc2ccc(O)cc2)C(=O)N[C@@H](Cc2c[nH]c3ccccc23)C(=O)N[C@@H](CCCNC(=N)N)C(=O)N(C)CC(=O)N[C@@H](CC(N)=O)C(=O)NCC(=O)NCCOCC(=O)N[C@H](CCCCN)C(N)=O)NC(=O)[C@H](CCC(N)=O)NC(=O)[C@H](Cc2c[nH]c3ccccc23)NC(=O)[C@H]([C@@H](C)O)NC(=O)[C@H](CCC(N)=O)NC1=O
B2: Hy-CADWVCY-[1-Nal]-HTF-OH (peptide)
peptide: H-CADWVCY[1Nal]HTF-OH
modifications: disulfide 1-6 (inferred)
B3: Hy-CTDWVCYWHEYS-NH2 (peptide)
peptide: H-CTDWVCYWHEYS-NH2
modifications: disulfide 1-6 (inferred)
B4: Hy-CADWVCY-[1-BIP]-HTFG-NH2 (peptide)
peptide: CADWVCYXHTFG
modifications: not fully specified; [1-BIP]; -NH2; disulfide
B5: Ac-CADWVCY-[1-Nal]-H-[b-Ala]-FG-NH2 (peptide)
peptide: Ac-CADWVCY[1Nal]H[βAla]FG-NH2
modifications: disulfide 1-6
SMILES: CC(=O)N[C@H]1CSSC[C@@H](C(=O)N[C@@H](Cc2ccc(O)cc2)C(=O)N[C@@H](Cc2cccc3ccccc23)C(=O)N[C@@H](Cc2c[nH]cn2)C(=O)NCCC(=O)N[C@@H](Cc2ccccc2)C(=O)NCC(N)=O)NC(=O)[C@H](C(C)C)NC(=O)[C@H](Cc2c[nH]c3ccccc23)NC(=O)[C@H](CC(=O)O)NC(=O)[C@H](C)NC1=O
B6: Ac-CADWVCY-[1-Nal]-[(D)Ala]-TFG-NH2 (peptide)
peptide: Ac-CADWVCY[1Nal][dA]TFG-NH2
modifications: disulfide 1-6
SMILES: CC(=O)N[C@H]1CSSC[C@@H](C(=O)N[C@@H](Cc2ccc(O)cc2)C(=O)N[C@@H](Cc2cccc3ccccc23)C(=O)N[C@H](C)C(=O)N[C@H](C(=O)N[C@@H](Cc2ccccc2)C(=O)NCC(N)=O)[C@@H](C)O)NC(=O)[C@H](C(C)C)NC(=O)[C@H](Cc2c[nH]c3ccccc23)NC(=O)[C@H](CC(=O)O)NC(=O)[C@H](C)NC1=O
B7: Ac-CADWVCY-[1-Nal]-FTFG-NH2 (peptide)
peptide: Ac-CADWVCY[1Nal]FTFG-NH2
modifications: disulfide 1-6
SMILES: CC(=O)N[C@H]1CSSC[C@@H](C(=O)N[C@@H](Cc2ccc(O)cc2)C(=O)N[C@@H](Cc2cccc3ccccc23)C(=O)N[C@@H](Cc2ccccc2)C(=O)N[C@H](C(=O)N[C@@H](Cc2ccccc2)C(=O)NCC(N)=O)[C@@H](C)O)NC(=O)[C@H](C(C)C)NC(=O)[C@H](Cc2c[nH]c3ccccc23)NC(=O)[C@H](CC(=O)O)NC(=O)[C@H](C)NC1=O
B8: Ac-CADWVCY-[1-Nal]-H-[(D)Ala]-FG-NH2 (peptide)
peptide: Ac-CADWVCY[1Nal]H[dA]FG-NH2
modifications: disulfide 1-6
SMILES: CC(=O)N[C@H]1CSSC[C@@H](C(=O)N[C@@H](Cc2ccc(O)cc2)C(=O)N[C@@H](Cc2cccc3ccccc23)C(=O)N[C@@H](Cc2c[nH]cn2)C(=O)N[C@H](C)C(=O)N[C@@H](Cc2ccccc2)C(=O)NCC(N)=O)NC(=O)[C@H](C(C)C)NC(=O)[C@H](Cc2c[nH]c3ccccc23)NC(=O)[C@H](CC(=O)O)NC(=O)[C@H](C)NC1=O
B9: Hy-CSDWECYWHIFG-NH2 (peptide)
peptide: H-CSDWECYWHIFG-NH2
modifications: disulfide 1-6 (inferred)
B10: Hy-ACDWCCYWCTFG-NH2 (peptide)
peptide: H-ACDWCCYWCTFG-NH2
modifications: disulfide (positions not given here); also: disulfide pairing not given here
B11: Hy-CSDWRCYWHVFG-NH2 (peptide)
peptide: H-CSDWRCYWHVFG-NH2
modifications: disulfide 1-6 (inferred)
B12: Hy-AADWCAYWCTFG-NH2 (peptide)
peptide: H-AADWCAYWCTFG-NH2
modifications: disulfide 5-9 (inferred)
B13: Hy-CADWVCY-[1-Nal]-HT-[(D)Phe]-OH (peptide)
peptide: H-CADWVCY[1Nal]HT[dF]-OH
modifications: disulfide 1-6 (inferred)
B14: Hy-CAD-[2-Nal]-VCYWHTFG-NH2 (peptide)
peptide: CADXVCYWHTFG
modifications: [2-Nal]; -NH2; disulfide
B15: Ac-[(D)Lys]-CADWVCYWHTFG-OH (peptide)
peptide: KCADWVCYWHTFG
modifications: Ac-; [(D)Lys]; disulfide
B16: Hy-CKDWKCYWHIYG-NH2 (peptide)
peptide: H-CKDWKCYWHIYG-NH2
modifications: disulfide 1-6 (inferred)
B17: Hy-CHTWVCYWHEFS-NH2 (peptide)
peptide: H-CHTWVCYWHEFS-NH2
modifications: disulfide 1-6 (inferred)
B18: Hy-CADWVCY-[1-Nal]-HTF-[Sarc]-OH (peptide)
peptide: CADWVCYXHTFX
modifications: [1-Nal]; [Sarc]; disulfide
B19: Hy-CAD-[N-Me-Trp]-VCY-[1-Nal]-HTF-OH (peptide)
peptide: H-CAD[NMeW]VCY[1Nal]HTF-OH
modifications: disulfide 1-6 (inferred)
B20: Hy-CETWECYWHSFS-NH2 (peptide)
peptide: H-CETWECYWHSFS-NH2
modifications: disulfide 1-6 (inferred)
B21: Hy-CADWVCYWHTF-NH2 (peptide)
peptide: H-CADWVCYWHTF-NH2
modifications: disulfide 1-6 (inferred)
B22: Hy-CADWVCY-[1-Nal]-[N-Me-His]-TF-OH (peptide)
peptide: H-CADWVCY[1Nal][NMeH]TF-OH
modifications: disulfide 1-6
SMILES: CC(C)[C@@H]1NC(=O)[C@H](Cc2c[nH]c3ccccc23)NC(=O)[C@H](CC(=O)O)NC(=O)[C@H](C)NC(=O)[C@@H](N)CSSC[C@@H](C(=O)N[C@@H](Cc2ccc(O)cc2)C(=O)N[C@@H](Cc2cccc3ccccc23)C(=O)N(C)[C@@H](Cc2c[nH]cn2)C(=O)N[C@H](C(=O)N[C@@H](Cc2ccccc2)C(=O)O)[C@@H](C)O)NC1=O
B23: Hy-CRTWVCYWHVFG-NH2 (peptide)
peptide: H-CRTWVCYWHVFG-NH2
modifications: disulfide 1-6 (inferred)
B24: Hy-CAD-[Tic]-VCYWHTFG-NH2 (peptide)
peptide: CADXVCYWHTFG
modifications: [Tic]; -NH2; disulfide
B25: Hy-CAD-[1-Nal]-VCYWHTFG-NH2 (peptide)
peptide: CADXVCYWHTFG
modifications: [1-Nal]; -NH2; disulfide
B26: Hy-ACDWVCYWHTFG-NH2 (peptide)
peptide: H-ACDWVCYWHTFG-NH2
modifications: disulfide 2-6 (inferred)
B27: Hy-CQSWECYWHYYG-NH2 (peptide)
peptide: H-CQSWECYWHYYG-NH2
modifications: disulfide 1-6 (inferred)
B28: Hy-C-[Sarc]-DWVCY-[1-Nal]-HTF-OH (peptide)
peptide: CXDWVCYXHTF
modifications: [Sarc]; [1-Nal]; disulfide
B29: Hy-CADWCCYWCTFG-NH2 (peptide)
peptide: H-CADWCCYWCTFG-NH2
modifications: disulfide (positions not given here); also: disulfide pairing not given here
B30: Hy-CGNWECYWHVYG-NH2 (peptide)
peptide: H-CGNWECYWHVYG-NH2
modifications: disulfide 1-6 (inferred)
B31: Ac-[(D)Lys]-SCADWVCYWHTFG-OH (peptide)
peptide: Ac-[dK]SCADWVCYWHTFG-OH
modifications: disulfide 3-8 (inferred)
B32: Ac-[(D)Lys]-[β-Ala]-CADWVCYWHTFG-OH (peptide)
peptide: KACADWVCYWHTFG
modifications: Ac-; [(D)Lys]; [β-Ala]; disulfide
B33: Hy-[β-Ala]-SCADWVCYWHTFG-OH (peptide)
peptide: H-[βAla]SCADWVCYWHTFG-OH
modifications: disulfide 3-8 (inferred)
B34: Hy-CAD-[1-BIP]-VCYWHTFG-NH2 (peptide)
peptide: CADXVCYWHTFG
modifications: not fully specified; [1-BIP]; -NH2; disulfide
B35: Hy-CADWCCYWCTFG-NH2 (peptide)
peptide: H-CADWCCYWCTFG-NH2
modifications: disulfide (positions not given here); also: disulfide pairing not given here
B36: Hy-CADWVCY[Tic]-HTFG-NH2 (peptide)
peptide: CADWVCYXHTFG
modifications: [Tic]; -NH2; disulfide
B37: Hy-CADWCCYWCTFG-NH2 (peptide)
peptide: H-CADWCCYWCTFG-NH2
modifications: disulfide (positions not given here); also: disulfide pairing not given here
B38: Hy-CADW-[Sarc]-CY-[1-Nal]-HTF-OH (peptide)
peptide: CADWXCYXHTF
modifications: [Sarc]; [1-Nal]; disulfide
B39: Hy-CADWVCYWHT-NH2 (peptide)
peptide: H-CADWVCYWHT-NH2
modifications: disulfide 1-6 (inferred)
B40: Hy-CQTWVCYWHTYG-NH2 (peptide)
peptide: H-CQTWVCYWHTYG-NH2
modifications: disulfide 1-6 (inferred)

These binders were tested against T1, IL23R_huFC (human, UniProt Q5VWK5 24-353) (assay: IL23-IL23R competitive ELISA).
T1 sequence (looked up): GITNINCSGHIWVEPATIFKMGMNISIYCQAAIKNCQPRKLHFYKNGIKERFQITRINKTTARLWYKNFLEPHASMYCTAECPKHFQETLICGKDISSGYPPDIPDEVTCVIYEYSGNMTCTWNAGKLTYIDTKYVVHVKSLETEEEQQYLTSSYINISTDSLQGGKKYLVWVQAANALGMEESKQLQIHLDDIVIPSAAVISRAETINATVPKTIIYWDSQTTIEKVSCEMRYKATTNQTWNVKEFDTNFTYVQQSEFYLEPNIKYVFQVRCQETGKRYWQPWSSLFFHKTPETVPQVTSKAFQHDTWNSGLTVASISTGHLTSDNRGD
In the case of B1, the IC50 is reported as > 1000 nM.
B2 was tested, and the IC50 was > 1000 nM.
With B3 the IC50 was > 1000 nM.
For B4, the IC50 was > 1000 nM.
B5 was tested, and the IC50 was > 1000 nM.
B6 was tested, and the IC50 was > 1000 nM.
In the case of B7, the IC50 is reported as > 1000 nM.
For B8, the IC50 was > 1000 nM.
With B9 the IC50 was > 1000 nM.
In the case of B10, the IC50 is reported as > 1000 nM.
With B11 the IC50 was > 1000 nM.
In the case of B12, the IC50 is reported as > 1000 nM.
For B13, the IC50 was > 1000 nM.
With B14 the IC50 was > 1000 nM.
With B15 the IC50 was > 1000 nM.
With B16 the IC50 was > 1000 nM.
B17 was tested, and the IC50 was > 1000 nM.
For B18, the IC50 was > 1000 nM.
B19 was tested, and the IC50 was > 1000 nM.
With B20 the IC50 was > 1000 nM.
With B21 the IC50 was > 1000 nM.
With B22 the IC50 was > 1000 nM.
In the case of B23, the IC50 is reported as > 1000 nM.
With B24 the IC50 was > 1000 nM.
In the case of B25, the IC50 is reported as > 1000 nM.
In the case of B26, the IC50 is reported as > 1000 nM.
With B27 the IC50 was > 1000 nM.
For B28, the IC50 was > 1000 nM.
For B29, the IC50 was > 1000 nM.
For B30, the IC50 was > 1000 nM.
B31 was tested, and the IC50 was > 1000 nM.
B32 was tested, and the IC50 was > 1000 nM.
B33 was tested, and the IC50 was > 1000 nM.
In the case of B34, the IC50 is reported as > 1000 nM.
With B35 the IC50 was > 1000 nM.
With B36 the IC50 was > 1000 nM.
For B37, the IC50 was > 1000 nM.
With B38 the IC50 was > 1000 nM.
For B39, the IC50 was > 1000 nM.
For B40, the IC50 was > 1000 nM.
